Results on one protein are retold here after US11807873B2, “Conversion of S-lignin compounds to useful intermediates” (Alliance for Sustainable Energy, LLC, priority 2020, dated 2023).

Assay in all cases: purified protein, by the assay type
Holding throughout (conditions): other: 2 μM Ht-VanB, 400 μM NADH, air-saturated HEPES (I = 0.1M), pH 7.5, 25° C, VanA 0.4 μM for vanillate, 1 μM for syringate and 3MGA

Substrate in data set [1]: COc1cc(C(=O)O)ccc1O
Procedure: (§1) In evaluating the parameters for VA, 0.4 μM VanA was used to ensure steady-state conditions at low concentrations of VA.
(§2) Steady-state kinetic analyses: Kinetic assays were performed by monitoring the consumption of O2 using a Clark-type polarographic O2 electrode OXYG1 (Hansatech) connected to a circulating water bath. Assays with the exception of GalA were performed in 1 mL of air-saturated 40 mM HEPES, 80 mM NaCl (I=0.1 M, pH 7.5) at 25° C. GalA assays were performed in 40 mM MOPS, 80 mM NaCl (I=0.1 M, pH 7.0) at 30° C. The electrode was calibrated daily according to the manufacturer's instructions using air-saturated buffer and water depleted of 02 via addition of sodium hydrosulfite. Stock solutions were prepared fresh daily. The background rate of O2-consumption was recorded prior to initiating the reaction and was subtracted from the measured reaction rate. Steady-state kinetic parameters were evaluated by fitting the Michaelis-Menten equation to the data using the least-squares fitting of LEONORA.
(§3) For VanAB, the standard reaction contained 1 μM VanA, 2 μM Ht-VanB, and 400 μM NADH. […] Stock solutions of the substrates were made in dimethylsulfoxide (DMSO). The final concentration of DMSO in the assay solutions was <1% (v/v). For PcaHG, the standard reaction contained 250 μM PCA. The reaction was initiated by adding 0.1 μM PcaHG. […] The reaction was initiated by adding 0.05 μM GalA.
Substrate in data set [2]: COc1cc(C(=O)O)cc(OC)c1O
Substrate in data set [3]: COc1cc(C(=O)O)cc(O)c1O
Procedure: as §1, §2, §3

B1: VanAB (vanillate O-demethylase) (Pseudomonas putida KT2440) (protein)
chain: MYPKNTWYVACTPDEIATKPLGRQICGEKIVFYRARENQVAAVEDFCPHRGAPLSLGYVEDGNLVCGYHGLVMGCDGKTVSMPGQRVRGFPCNKTFAAVERYGFIWVWPGDQAQADPALIPHLEWAVSDEWAYGGGLFHIGCDYRLMIDNLMDLTHETYVHASSIGQKEIDEAPPVTTVTGDEVVTARHMENIMAPPFWRMALRGNGLADDVPVDRWQICRFTPPSHVLIEVGVAHAGKGGYHAEAQHKASSIVVDFITPESDTSIWYFWGMARNFAAHDQTLTDNIREGQGKIFSEDLEMLERQQQNLLAHPERNLLKLNIDAGGVQSRKVLERIIAQERAPQPQLIATSANPAGKLP
Turning to B1, the Km in data set [1] was determined as 4 ± 1 µM; in data set [2], 16 ± 2 µM; in data set [3], 150 ± 20 µM. The kcat in data set [2] stood at 0.89 ± 0.03 s⁻¹; in data set [3] it was 0.53 ± 0.02 s⁻¹. The kcat/Km in data set [2] is recorded as 5.5 ± 0.6 ×10^4 s^−1 · M^−1; in data set [3], 0.36 ± 0.04 ×10^4 s^−1 · M^−1.

For orientation: Km means the substrate concentration at which the rate is half of its maximum. One may read the kcat as the maximal rate divided by the concentration of active sites.
